What all share (experiment): purified protein
Substrate in series [1]: O=C(O)CC(=O)C(=O)O
The settings on record: 100 mM serine as amine donor, 50 mM HEPES/KOH pH 7.5, 37 °C, pH 7.5.

Substrate in series [2]: N[C@@H](CO)C(=O)O
The settings on record: 7 mM oxaloacetate as acceptor, 50 mM HEPES/KOH pH 7.5, 37 °C, pH 7.5.

Substrate in series [3]: N[C@H](CO)C(=O)O
The settings on record: DCPIP-coupled assay, 37 °C, exact D-serine reaction mix not stated.

Substrate in series [4]: C[C@@H](N)C(=O)O
The following applies: 200 mM HEPES/KOH pH 7.5, 0.1 mM DCPIP, 1.5 mM PES, 10 mM KCN, 37 °C, pH 7.5.

B1: BhcA (Paracoccus denitrificans PD1222) (protein)
chain: MTSQNPIFIPGPTNIPEEMRKAVDMPTIDHRSPVFGRMLHPALEGVKKVLKTTQAQVFLFPSTGTGGWETAITNTLSPGDKVLAARNGMFSHRWIDMCQRHGLDVTFVETPWGEGVPADRFEEILTADKGHEIRVVLATHNETATGVKSDIAAVRRALDAAKHPALLFVDGVSSIGSMDFRMDEWGVDIAVTGSQKGFMLPPGLAIVGFSPKAMEAVETARLPRTFFDIRDMATGYARNGYPYTPPVGLINGLNASCERILAEGLENVFARHHRIASGVRAAVDAWGLKLCAVRPELYSDSVSAIRVPEGFDANLIVSHALETYDMAFGTGLGQVAGKVFRIGHLGSLTDAMALSGIATAEMVMADLGLPIQLGSGVAAAQEHYRQTTAAAQKKAA
In the case of B1, in the series “purified protein [1]”, the Km is listed as 0.23 ± 0.03 mM, the turnover number (kcat) is 31.2 s⁻¹ and the kcat/Km turned out to be 140000 M⁻¹ s⁻¹. In the series “purified protein [2]”, the Km turned out to be 7 mM and the kcat was 25.9 s⁻¹.

B2: DadA (Escherichia coli K-12) (protein)
chain: MRVVILGSGVVGVASAWYLNQAGHEVTVIDREPGAALETSAANAGQISPGYAAPWAAPGVPLKAIKWMFQRHAPLAVRLDGTQFQLKWMWQMLRNCDTSHYMENKGRMVRLAEYSRDCLKALRAETNIQYEGRQGGTLQLFRTEQQYENATRDIAVLEDAGVPYQLLESSRLAEVEPALAEVAHKLTGGLQLPNDETGDCQLFTQNLARMAEQAGVKFRFNTPVDQLLCDGEQIYGVKCGDEVIKADAYVMAFGSYSTAMLKGIVDIPVYPLKGYSLTIPIAQEDGAPVSTILDETYKIAITRFDNRIRVGGMAEIVGFNTELLQPRRETLEMVVRDLYPRGGHVEQATFWTGLRPMTPDGTPVVGRTRFKNLWLNTGHGTLGWTMACGSGQLLSDLLSGRTPAIPYEDLSVARYSRGFTPSRPGHLHGAHS
As for B2, in the series “purified protein [3]”, the Km is reported as 64.77 ± 9.28 mM, the kcat was determined as 0.37 s⁻¹ and the kcat/Km was 5.71 M⁻¹ s⁻¹. Further, in the series “purified protein [4]”, the Michaelis-Menten constant (Km) was determined as 1.26 ± 0.26 mM, the kcat is 0.81 s⁻¹ and the kcat/Km was 642 M⁻¹ s⁻¹.

As a reminder, the Km is the substrate concentration at which the rate is half of its maximum. Usually kcat stands for the maximal rate divided by the concentration of active sites. One may read the kcat/Km as the turnover number divided by the Michaelis constant.

These data come from publication PMC9436414.
